From patent publication US20250325682A1, “FKBP52-DERIVED THERAPEUTIC PEPTIDES THAT INHIBIT PATHOLOGICAL TAU AGGREGATION FOR THERAPEUTIC PURPOSES” (priority 2024, published 2025)
Ends that are not written are not given here.

B1: YARAAARQARA-P50 (peptide)
chain: YARAAARQARAAKPNEGAIVEVALEGYYKDKLFDQRELRFEIGEGENLDLPYGLERAIQRM

How the values were obtained:
Tau-P301L = target: T1, Tau-P301L (Homo sapiens, UniProt P10636, P618L); assay: Thioflavine T fluorescence assay of seeded Tau-P301L aggregation; format: biochemical; conditions: for Tau-P301L aggregate formation (ThT fluorescence intensity): Tau-P301L 5 μM with Tau seeds, peptide 50 μM, fluorescence at 24 h, ±SEM, n=3, remaining aggregation
T1 construct: made in house; host or cells: Escherichia coli BL21
Excerpt: Protein purification. Recombinant wild-type Tau and Tan with P301L mutation proteins was expressed in Escherichia coli (E. coli, BL21) and purified as described; Goedert M, Jakes R (1990) Expression of separate isoforms of human tau protein: correlation with the tau pattern in brain and effects on tubulin polymerization. EMBO J 9, 4225-4230. Combs B, Tiernan C T, Hamel C, Kanaan N M (2017) Production of recombinant tau oligomers in vitro. Methods Cell Biol 141, 45-64.
Effect of P35 on Tau-P30IL aggregation. Tau-P301L protein is used in all aggregation assays. Tau seeds are prepared during a first polymerization: 15UM of monomeric Tau-P301L was incubated at 37° C. in polymerization buffer (PI-buffer): NaH2PO4 25 mM, Na2HPO4 25 mM, NaCl 25 mM, EDTA SmM PH 6,6 with heparin 7.5 μM, Thioflavine-T 50 μM, and Dithiothreitol (DTT) 0.3 mM in a final volume of 100 μl. Fluorescence was monitored every 30 minutes during 25 hours at 480 nm (excitation at 450 nm) using Perkin-Elmer Endvision spectrophotometer. After polymerization, samples (100 μl) were centrifuged at 20,000 g for 1 hour at 4° C. The pellets were resuspended in 100 μl of PI-buffer and sonicated (Branson sonicator) at 40%, 3 times of 1 second, in order to obtain small pre-formed Tau fibrils used as seeds for the second polymerization assay. A volume of 18% of Tau seeds was pre-incubated in the same buffer of the first polymerization, with or without polypeptides, during 1 h at 37° C. Subsequently, 5 μM of monomeric Tau-P301L was added and fluorescence was monitored in the same conditions.

[1] = test system: hTau-P301S mouse DRG neurons; assay: Western blot of sarkosyl-insoluble Tau fraction of peptide-treated DRG neurons; format: cell-based; conditions: peptide 200 nM in cell medium for 15 days, compared to scramble control
Protocol: DRG culture and western-blot analyses. DRG neurons were collected from hTau-P301S mice spinal cords as described by Sleigh and dissociated with collagenase (ThermoFisher Scientific, 17100-017) 2900 U/mL during 90 min followed by 0.1% trypsin (Life Technologies, 15090-046) 3 mM EDTA containing DNaseI (50 μg/mL; Sigma-Aldrich, 04536282001) for 5 min; Sleigh J N, Weir G A, Schiavo G, A simple, step-by-step dissection protocol for the rapid isolation of mouse dorsal root ganglia. BMC RES NOTES, 2016, 9, 82.
Cell treatment was stopped using 1×PBS (VWR, X0515-500) supplemented with 2% horse serum (ThermoFisher Scientific, 16050-122), and DRG neurons were dissociated with a Pasteur pipette. Cells were then centrifuged for 5 min at 1,300 g and the pellet was resuspended in DMEM (Fisher Scientific, 12077549) with 9% fetal bovine serum. After filtration on a 0.40 μm filter followed by centrifugation 5 min at 1,300 g. the pellet was resuspended in neurobasal medium complemented with B27 (50×), L-glutamine (100×) (Life Technologies, 11530536 and 25030024 respectively), NGF 2.5 S (27 ng/ml; ThermoFisher, 13257-019) and distributed in 2 wells of a 6-well culture plate. Cell cultures were maintained for 15 days in vitro (DIV) and the cell medium complemented with mitomycine C (Sigma-Aldrich, M4287) and 5-Fluorodeoxy-uridine (Sigma-Aldrich, F0503) was changed twice a week. Cells were harvested by scraping, centrifuged for 10 min at 200 g and the pellet was homogenized using PotterElvehjem 18 in cold extraction buffer (50 mM Tris-HCl, pH 7.5, 100 mM NaCl, 0.5% SDS, 2 mM CaCl2, 2 mM MgCl2) supplemented with a cocktail of protease and phosphatase inhibitors (Roche, 11836145001). […] Each sample was analyzed on a 10% SDS Page gel and transferred onto iBlot™ Gel Transfer membranes (Invitrogen, IB23001, IB24002). […] Images were recorded with the GeneGnome5 (Syngene). Quantification was performed using Genetools analysis software (Syngene).
DRGs treatment with peptides. […] After cell lysis, lysates were then analyzed by western-blot as described in “DRG culture and western-blot analyses”.

T1 sequence (P10636 1-441 isoform P10636-8 P301L): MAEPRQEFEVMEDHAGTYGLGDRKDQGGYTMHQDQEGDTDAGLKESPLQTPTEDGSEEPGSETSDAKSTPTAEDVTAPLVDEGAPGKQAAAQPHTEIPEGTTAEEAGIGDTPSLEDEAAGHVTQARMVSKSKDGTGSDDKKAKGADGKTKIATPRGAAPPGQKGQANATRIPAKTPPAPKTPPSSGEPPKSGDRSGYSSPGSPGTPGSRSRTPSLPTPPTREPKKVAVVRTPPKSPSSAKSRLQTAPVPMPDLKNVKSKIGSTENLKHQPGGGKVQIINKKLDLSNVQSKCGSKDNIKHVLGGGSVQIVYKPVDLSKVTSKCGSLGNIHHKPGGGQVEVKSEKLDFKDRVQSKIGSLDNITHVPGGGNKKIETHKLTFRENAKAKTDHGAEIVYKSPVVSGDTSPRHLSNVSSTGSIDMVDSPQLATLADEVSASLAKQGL

Molecule	Tau-P301L aggregate formation (ThT fluorescence intensity) (Tau-P301L) [%]	insoluble Tau forms / Tau-P301S aggregation (western blot, sarkosyl-insoluble fraction) [1]	further results
AKPNEGAIVEVALEGYYKDKLFDQRELRFEIGEGE (Ac-AKPNEGAIVEVALEGYYKDKLFDQRELRFEIGEGE; not fully specified (C-terminus); listed as Homo sapiens) [P35]	80.6	–	–
AKPNEGAIVEVALEGYYKDKLFDQRELRFEIGEGENLDLPYGLERAIQRM (listed as Homo sapiens) [P50]	–	–	effect on Tau-P301L aggregation in vitro (in words) (Tau-P301L; in vitro incubation of Tau-P301L with peptide, data not shown): comparable effects than P35
IRFKVLEGLYGEVDEAKEGNEAKAEGLQEYPDFIR [P35sc, reference compound]	91.4	–	–
YARAAARQARA-P35 (YARAAARQARAAKPNEGAIVEVALEGYYKDKLFDQRELRFEIGEGE) [YARA-P35]	–	tends to show a decrease of Tau-P301S aggregation	–
B1	–	decrease of insoluble Tau forms	insoluble Tau forms / Tau-P301S aggregation (western blot, sarkosyl-insoluble fraction) ([1]; listed as YARA-PSO): tends to show a decrease of Tau-P301S aggregation
